The text below walks through data of patent publication US10369187B2, “Peptide regulators of JNK family kinases” (Vanderbilt University, priority 2017, dated 2019).

The target of one test is T1, ASK1 (Homo sapiens, UniProt Q99683).
T1 construct: expressed in transfected cells; host or cells: COS7
T1 sequence (Q99683 1-1374): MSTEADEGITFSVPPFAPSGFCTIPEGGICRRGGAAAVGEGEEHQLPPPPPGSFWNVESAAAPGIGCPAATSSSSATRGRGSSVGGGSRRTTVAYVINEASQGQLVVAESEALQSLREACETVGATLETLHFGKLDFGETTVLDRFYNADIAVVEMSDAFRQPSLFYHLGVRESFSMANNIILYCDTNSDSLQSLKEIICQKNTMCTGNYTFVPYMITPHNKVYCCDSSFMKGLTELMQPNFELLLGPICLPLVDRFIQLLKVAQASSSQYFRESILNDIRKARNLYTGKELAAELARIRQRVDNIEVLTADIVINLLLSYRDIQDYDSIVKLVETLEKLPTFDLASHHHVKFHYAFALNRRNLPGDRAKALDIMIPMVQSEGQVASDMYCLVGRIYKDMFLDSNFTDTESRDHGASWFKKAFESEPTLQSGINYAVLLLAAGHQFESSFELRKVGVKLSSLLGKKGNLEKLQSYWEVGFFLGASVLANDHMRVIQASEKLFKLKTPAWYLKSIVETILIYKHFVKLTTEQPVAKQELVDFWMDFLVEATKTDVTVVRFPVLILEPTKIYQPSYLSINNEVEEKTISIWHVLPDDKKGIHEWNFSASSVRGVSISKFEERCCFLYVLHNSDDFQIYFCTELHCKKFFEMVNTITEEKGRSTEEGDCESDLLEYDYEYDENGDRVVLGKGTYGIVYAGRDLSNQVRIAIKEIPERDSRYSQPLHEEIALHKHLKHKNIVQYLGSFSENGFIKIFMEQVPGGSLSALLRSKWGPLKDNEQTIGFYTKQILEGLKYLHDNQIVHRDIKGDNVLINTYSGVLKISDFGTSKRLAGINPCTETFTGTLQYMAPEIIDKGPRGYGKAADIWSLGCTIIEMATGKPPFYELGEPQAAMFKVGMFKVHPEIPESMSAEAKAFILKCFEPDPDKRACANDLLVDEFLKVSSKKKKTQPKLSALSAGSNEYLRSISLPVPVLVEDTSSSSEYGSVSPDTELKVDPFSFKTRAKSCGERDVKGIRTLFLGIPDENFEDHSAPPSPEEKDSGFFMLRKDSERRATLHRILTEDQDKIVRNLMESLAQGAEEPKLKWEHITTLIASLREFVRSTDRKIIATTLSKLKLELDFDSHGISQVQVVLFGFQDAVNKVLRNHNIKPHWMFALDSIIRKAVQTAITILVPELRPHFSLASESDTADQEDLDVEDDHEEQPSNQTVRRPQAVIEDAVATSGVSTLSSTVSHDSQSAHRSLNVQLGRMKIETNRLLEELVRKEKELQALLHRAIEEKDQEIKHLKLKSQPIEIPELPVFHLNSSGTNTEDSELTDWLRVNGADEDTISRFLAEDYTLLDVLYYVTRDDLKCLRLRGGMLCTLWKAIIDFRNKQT
Description: Co-immunoprecipitation of HA-ASK1 with YFP construct from COS7 cells. The format is binding. The settings on record: HA-ASK1 and YFP-T1A co-expressed in COS7 cells, anti-GFP antibody. Here is the method:
T1A was expressed in E. coli as an MBP-fusion and purified it on an amylose column^23. The ability of purified GST-MKK4 or GST-MKK7 (FIG. 1A) to bind MBP-T1A immobilized on an amylose column was tested in an in vitro pull-down assay, where MBP and MBP-arrestin-3 served as negative and positive controls, respectively (FIG. 1B). MBP-T1A, but not control MBP, effectively retained both kinases (FIG. 1B). […] Next, it was tested whether T1A binds the uppermost kinase in the cascade, ASK1. Because ASK1 is not available in purified form, HA-tagged ASK1 and YFP-tagged T1A (using YFP as a control) were co-expressed in COS7 cells, lysed the cells, and immunoprecipitated YFP constructs with anti-GFP antibody (FIG. 1C).

For a further test, the system named is MKK4-JNK3 module. As to the kind of experiment: JNK3 phosphorylation by co-expressed MKK4 in cells. The format is cell-based, African green monkey. The settings on record: YFP-T1A co-expressed with MKK4 in COS7 cells. Here is the method:
(§1) To test whether T1A can promote JNK3 phosphorylation by MKKs in cells, MKK4 or MKK7 was co-expressed with YFP-T1A in COS7 cells, using YFP and full-length arrestin-3 as negative and positive controls, respectively (FIG. 2C).
(§2) COS-7 African green monkey cells were maintained in DMEM supplemented with 10% heat-inactivated FBS (Invitrogen), penicillin, and streptomycin at 37° C. in a humidified incubator with 5% CO2. The cells were plated at 80-90% confluence and transfected using Lipofectamine 2000 (Invitrogen) according to the manufacturer's instructions. Cells were used 48 h post-transfection and serum-starved overnight before experiments.
(§3) COS-7 cells were incubated with phosphatase inhibitors (50 mM NaF and 10 mM Na3VO4) in serum-free medium for 15 min at 37° C.; washed with cold PBS; and lysed with SDS lysis buffer containing 1% SDS, 10 mM Tris (pH7.4), 10 mM NaF, 100 μM Na3VO4, 2 mM EDTA, 2 mM benzamidine and 1 mM PMSF. JNKs activity was assayed by Western blotting using an antibody specific for phosphorylated JNK to detect phosphorylated (active) JNKs^17,20,23. […] Protein was measured using the Bio-Rad Coomassie Blue assay. […] Protein bands were detected by enhanced chemiluminescence (ECL, Pierce), followed by exposure to x-ray film. To quantify phospho-JNKs, serial dilutions of anisomycin (1 μg/ml)-stimulated HEK-A cell lysates were used to ensure that all samples were in linear range. […]

A further test relates to MKK7-JNK3 module. Description: JNK3 phosphorylation by co-expressed MKK7 in cells. The class given is cell-based, African green monkey. The settings on record: YFP-T1A co-expressed with MKK7 in COS7 cells. Here is the method:
as §1, §2, §3

Another test has as its target JNK3 (Homo sapiens, UniProt P53779). To be noted: earlier work, reference 23; cited from earlier work.

Chain of JNK3 (P53779 whole entry, species assumed): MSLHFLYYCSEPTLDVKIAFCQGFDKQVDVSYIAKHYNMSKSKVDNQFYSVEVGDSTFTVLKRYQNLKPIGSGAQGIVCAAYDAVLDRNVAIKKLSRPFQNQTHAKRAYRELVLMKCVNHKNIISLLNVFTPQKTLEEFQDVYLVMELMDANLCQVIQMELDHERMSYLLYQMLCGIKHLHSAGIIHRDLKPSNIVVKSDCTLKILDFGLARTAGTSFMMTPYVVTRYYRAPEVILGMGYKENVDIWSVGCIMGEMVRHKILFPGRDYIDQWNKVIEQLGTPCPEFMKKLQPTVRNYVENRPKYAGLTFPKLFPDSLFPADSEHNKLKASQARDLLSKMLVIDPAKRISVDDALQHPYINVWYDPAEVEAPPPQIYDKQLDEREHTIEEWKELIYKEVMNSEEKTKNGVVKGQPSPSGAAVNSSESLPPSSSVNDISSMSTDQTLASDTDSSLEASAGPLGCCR

In the case of “MGEKPGTRVFKKSSPNCKLTVYLGK (bovine) [T1A, first 25 residues of arrestin-3]”, in the test with ASK1, the “binding of ASK1 (co-immunoprecipitation)” value is recorded as “binds all upstream kinases of its activation cascade”. For the same sequence, the “JNK3 phosphorylation by MKK4 in cells” value in the test with MKK4-JNK3 module was “necessary and sufficient to promote the signaling”. Moreover, the “JNK3 phosphorylation by MKK7 in cells” value in the test with MKK7-JNK3 module is “necessary and sufficient to promote the signaling”. Besides, in the test with JNK3, the “JNK3 binding element of arrestin-3” value is reported as “key interaction site”.
